Test results as given in patent publication US20140105914A1 (ANTITOPE, published 2014).
Residue numbers refer to the chain shown, from its start.

Experiments:
[1] = biological target: T1, human CTLA4 expressed on the surface of T-cells (human, UniProt P16410 36-223); test: cell-based or functional assay
T1 sequence (looked up): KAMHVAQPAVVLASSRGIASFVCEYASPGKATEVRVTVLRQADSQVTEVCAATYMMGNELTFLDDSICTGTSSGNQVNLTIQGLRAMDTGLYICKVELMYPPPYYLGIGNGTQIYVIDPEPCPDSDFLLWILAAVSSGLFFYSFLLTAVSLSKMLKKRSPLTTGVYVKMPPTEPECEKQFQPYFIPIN

[2] = biological target: T2, Recombinant CTLA4-fusion protein comprising the extracellular domain of human CTLA4 fused to the human IgG1 … (human, UniProt P16410 36-161); test: ELISA on coated CTLA4-Fc
T2 construct: extracellular domain; Bought reagent; Coated on ELISA plates at 0.5 ug/ml; also called CTLA4-Fc; CTLA4-Ig; not shown: human IgG1 constant domain (Fc); a Factor Xa site lies between CTLA4 and Fc, since the fusion was cle
T2 sequence (looked up): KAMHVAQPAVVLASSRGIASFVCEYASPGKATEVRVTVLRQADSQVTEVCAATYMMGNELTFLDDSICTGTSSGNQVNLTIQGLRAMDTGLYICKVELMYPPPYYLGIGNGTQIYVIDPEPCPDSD

[3] = biological target: T1, human CTLA4 expressed on the surface of …; test: flow cytometry on stimulated human CD4+ T cells, antibody at 5 ug/ml
Description: In order to determine whether the lead monoclonal antibodies bound to CTLA4 expressed on the surface of T-cells, a flow cytometric analysis was performed. Human peripheral T cells were isolated from human PBMC (peripheral blood mononuclear cells) and stimulated to enhance expression of CTLA4. CD4+ cells were purified from PBMC using a CD4⁺ T Cell Isolation Kit (Miltenyi Biotec, Bisley, UK), plated out in a 24 well plate (1×10⁶ cells/well) in AIM-V Medium (Invitrogen, Paisley, UK) and incubated at 37° C. overnight. Cells were stimulated with lonomycin (1 μg/ml) and PMA (phorbol 12-myristate 13-acetate) (50 ng/ml) and incubated 4 h at 37° C. Cells were washed once in AIM-V medium, fixed in PBS containing 2% formaldehyde for 15 min, and resuspended in FACS buffer (D-PBS containing 1% BSA, 0.05% sodium azide and 0.1% Saponin) at 2×10⁶ cells/ml and incubated 30 min at 4° C.
2×10⁵ cells were stained using either a 1 in 10 dilution of anti-CTLA4-PE conjugated antibody (BNI3) (Abcam, Cambridge, UK) as a positive control or with 5 μg/ml of individual anti-CTLA4 monoclonal antibodies together with a 1 in 50 dilution of anti-mouse IgG-PE conjugated antibody (Sigma). Mouse IgG (Sigma) was also included as separate controls for the different murine isotypes present within the lead monoclonal antibodies. […] Instrument settings were determined by analysis of relevant isotype control antibodies. […]

[4] = biological target: T1, human CTLA4 expressed on the surface of …; test: flow cytometry on CTLA4 expressed on T cells
[5] = biological target: T2, Recombinant CTLA4-fusion protein …; test: CTLA4 binding ELISA on coated CTLA4-Fc

B1: lead humanised variant VH5/VK4 anti-CTLA4 antibody (antibody, V domains shown)
VH: QVQLVQSGAELKKPGASVKVSCKASGYTFTSYWINWIRQAPGQGLEWIGRIAPGSGTTYYNEVFKGRVTITVDKSTSTAYMELSSLRSEDTAVYFCARGDYGSYWGQGTLVTVSS
VL: EIVLTQSPATLSLSPGERATLSCSASSSISYMHWFQQRPGQSPRRWIYDTSKLASGVPARFSGSGSGTDYTLTISSLEPEDFATYYCHQRTSYPLTFGQGTKLEIKR
In the case of B1, the “IFN-gamma secretion in human mixed lymphocyte reaction (T cell activation), antibody at 150 ug/ml, compared to MDX010” value [1] is reported as 2 fold.

B2: murine monoclonal antibody 8H5 (subclone 8H5-1B1) (antibody, V domains shown)
VH: QVQLQQSGDDLVKPGASVKLSCKASGYTFTSYWINWIKQRPGQGLEWIGRIAPGSGTTYYNEVFKGKATLTVDKYSSTAYIQLSSLSSEDSAVYFCARGDYGSYWGQGTLVTVSS
VL: QIVLTQSPAIMSASPGEKVTMTCSASSSISYMHWFQQKPGTSPKRWIYDTSKLASGVPARFSGSGSGTSYSLTINSMEAEDAATYYCHQRTSYPLTFGAGTKLELK
notes: Mouse hybridoma antibody with a kappa light chain; also called 8H5-1A1
B2: binds [2]; binds [3].

B3: chimeric 8H5 human IgG1 antibody (antibody, V domains shown)
VH: B2 VH
VL: B2 VL
modifications: Biotinylated when used as the labelled competitor in Example 6.
notes: Gamma 4 versions were also cloned; also called 8H5 chimeric antibody; h8H5 parent IgG1
B3: binds [4]; binds [5].

B4: chimeric 3B10 human IgG1 antibody (antibody, V domains shown)
VH: EVQLQQFGAELVKPGASVKMSCKASGYTFTDYNMDWVRQSHGKSLEWIGNINPNSESTSYNQKFKGKATLTVDKSSSTAYMELRSLTSDDTAVYYCTRDGNRYDAWFAYWGQGTLVTVSS
VL: B2 VL with I29V, S30T, R45L, D49S, K52I, N75S, S76R, H88Q, A99T
modifications: Biotinylated when used as the labelled competitor in Example 6.
notes: Gamma 4 versions were also cloned; also called 3B10 chimeric antibody; parental 3B10 chimeric antibody
B4: binds [4]; binds [5].

B5: murine monoclonal antibody 3B10 (subclone 3B10-4F7) (antibody, V domains shown)
VH: B4 VH
VL: B2 VL with I29V, S30T, R45L, D49S, K52I, N75S, S76R, H88Q, A99T
notes: Mouse hybridoma antibody with a kappa light chain; also called 3B10-6E3
B5: binds [2]; binds [3].
